Experimental data taken from patent publication US20240218057A1 (ROCKEFELLER UNIVERSITY, published 2024).

B1: C542 (antibody, V domains shown)
VH: EVQLVESGGGLVQPGGSLRLSCAASGLTVTSNYMSWVRQAPGRGLEWVSLIYPGGTTYYADSVKGRFTVSRDNSKNTLYLQMDSLRAEDTGVYYCARETLGRGGDCWGQGTLVTVSS
VL: DIQMTQSPSSLSASVGDRVTITCQASQDISNFLNWYQQKPGKAPKLLIYDASNLETGVPSRFSGSRSGTDFTFTISSLQPDDIATYYCQQYDNLPRSFGQGTKLEIK
B2: C547 (antibody, V domains shown)
VH: QVQLVESGGGVVQPGRSLRLSCAASGFTFSSYGMHWVRQAPGKGLEWVAVISYDGSNKYYADSVKGRFTISRDNSKNTLYLQMNSLRAEDTAVYYCAKDTPGGDDILTGWGLYGMDVWGQGTTVTVSS
VL: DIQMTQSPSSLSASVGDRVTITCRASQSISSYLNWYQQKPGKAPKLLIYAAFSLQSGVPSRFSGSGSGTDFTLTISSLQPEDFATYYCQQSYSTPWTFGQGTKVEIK
B3: C543 (antibody, V domains shown)
VH: QVQLVESGGGVVQPGRSLRLSCTASGFTFSTAGMHWVRQAPGKGLEWVAVISYDGSNKDYADSVKGRFTISRDNSKSTLYLQMNSLRPEDTAVYYCAKDTPGGDDIMTGWGLYGMDVWGQGTTVTVSS
VL: DIQMTQSPSSLSASVGDRVTITCRASQSISSYLNWYHQKPGKAPKLLIYAAISLQSGVPSRFSGSGFGTDFTLTISSLQPEDFAIYYCQQSYSTPWTFGQGTKVEIK
B4: C534 (antibody, V domains shown)
VH: QVQLVQSGAEVKKPGSSVRVSCKASGGTFSRNVISWVRQAPGQGLEWMGGIIPMFATANYAQKFQGRVTITADESSSTAYMELSSLRSEDTAVYYCAREDFILVSAPIRENSYYYYGMDVWGQGTTVTVSS
VL: EIVLTQSPGTLSLSPGERATLSCRASQSVSSNYLAWYQQKPGQAPRLLIYDASSRATGIPDRFSGSGSGTDFTLTISRLEPEDFAVYYCQQYGGSPRTFGQGTKVEIK
B5: C533 (antibody, V domains shown)
VH: EVQLVESGGSLVKPGGSLRLSCVASGLTFNHAWMSWVRQAPGKGLEWVGRIKSKIDGGTTDYAAPVKGRFTISRDDSKSTQYLQMNSLKTEDTAVYYCTTDCFWRLGGTTCYEHDAFDVWGQGTMVTVSS
VL: DIQMTQSPSSLSASVGDRVTITCRASQAIATFLNWYQQKPGKAPKLLIYAASSLQSGVPSRFSGSGSGTDFTLTISNLQPEDFATYYCQQSYNSLHFGGGTKVEIK
B6: C538 (antibody, V domains shown)
VH: QLQLQESGPGLVKPSETLSLTCTVSGGSISSSSYYWAWIRQPPGKGLEWIGNIYYSGITYYSPSLKSRVTISVDTSKNQFSLKLRSVTAADTAVYYCARQHRYGSGSSELLWGQGTLVTVSS
VL: QSALTQPPSASGSPGQSVTISCTGTSSDVGSYNYVSWYQQHPGKAPKLMIYEVTKRPSGVPDRFSGSKSGNTASLTVSGLQADDEADYYCSSYAGSSNLIFGGGTKLTVL
B7: C513 (antibody, V domains shown)
VH: EVQLLESGGGLVQPGGSLRLSCVASGFSFSTYAMSWVRQAPGQGLEWVSTITGTSIGTYYADSVKGRFTISRDNSKNTVFLQMKSLRAEDAAVYYCANHPLASGDEYYYYYMDVWGKGTTVTVSS
VL: EIVLTQSPDTLSLSPGERATLSCRASQSVHSKQLAWYQQKPGQAPRLLIYGASSRATGIPDRFSGSGSGTDFTLTISRLEPEDFAVYYCQQYGSIRALTFGGGTKVEIK
B8: C514 (antibody, V domains shown)
VH: EVQLVESGGGLVQPGGSLRLSCAASEFIVTRNYMSWVRQAPGKGLEWVSLIYPGGSTFYADSVKGRFTISRDNSKNTLFLHMNSLRAEDTAVYYCARDLAGRLDYWGQGTLVTVSS
VL: DIQMTQSPSSLSASVGDRVTITCQASQDINNFLNWYQQKPGKAPKLLIYDASNLETGVPSRFSGSGSGTDFTFTISSLQPEDIAIYYCQQYDSLSRLTFGGGTKVEIK
B9: C539 (antibody, V domains shown)
VH: EVQLVESGGGLVQPGRSLRLSCAASGFTFDDYALHWVRQAPGKGLEWVSGISWNGDSIGYADSVKGRFTISRDNAKNSLSLQMNSLTAEDTALYYCAKGVEYSSSSNCDYWGQGTLVTVSS
VL: DIQMTQSPSSVSASVGDRVTITCRASQDISSWLAWYQQKPGKAPKLLISLASGLQSGVPSRFSGSGSETDFTLTISSLQPEDFATYYCQQTNSFPLTFGGGTKVEI

Each binder was assayed against SARS-COV-2 RBD (SARS-COV-2, UniProt P0DTC2 319-539) (assay: ELISA, RBD coated).
With B1 the EC50 was 1.07 ng/mL.
B2 gave an EC50 of 1.78 ng/mL.
Binder B3 has an EC50 of 1.28 ng/mL.
Binder B4 has an EC50 of 4.85 ng/mL.
B5 showed an EC50 of 1.61 ng/mL.
B6 gave an EC50 of 3.94 ng/mL.
In the case of B7, the EC50 is reported as 1.31 ng/mL.
In the case of B8, the EC50 is reported as 0.82 ng/mL.
Work on B9 yielded an EC50 of 1.3 ng/mL.
